This data set is described as follows: collision cross section of modified peptide (TIMS, N2, iRT-aligned); higher = larger / more extended gas-phase ion. A digest of the protocol: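 Values are averages of 1–3 technical replicates of the most abundant feature for each charge state. Collision cross section was obtained from the Mason-Schamp equation after 1/K0 calibration with three reference ions and run-wise alignment to the median iRT peptide deviation. Synthetic peptide pools (iRT standard spiked 1:40) were separated on a 120-min nanoflow C18 gradient at 60 °C, analysed on a timsTOF Pro/HT (dda-PASEF, nitrogen, ~2.4 mbar) and identified with MaxQuant.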

Where [1] appears, read: charge state: 2, modification: Crotonyl.
Setting [2] is: charge state: 3, modification: Crotonyl.
Setting [3] is: charge state: 2, modification: Dimethyl (K).
The mark [4] stands for this setting: charge state: 3, modification: Dimethyl (K).
Where [5] appears, read: charge state: 2, modification: Formyl.
The mark [6] stands for this setting: charge state: 3, modification: Formyl.
Where [7] appears, read: charge state: 2, modification: Glutarylation.
Setting [8] is: charge state: 3, modification: Glutarylation.
Where [9] appears, read: charge state: 2, modification: GlyGly (K).
Setting [10] is: charge state: 3, modification: GlyGly (K).
The mark [11] stands for this setting: charge state: 2, modification: Malonyl.
The mark [12] stands for this setting: charge state: 2, modification: Methyl (K).
Setting [13] is: charge state: 3, modification: Methyl (K).
Where [14] appears, read: charge state: 2, modification: Succinyl.
Where [15] appears, read: charge state: 2, modification: Trimethyl (K).
Where [16] appears, read: charge state: 3, modification: Trimethyl (K).
Where [17] appears, read: charge state: 2, modification: hydroxyisobutyryl.
[18] abbreviates: charge state: 2, modification: HexNAc (ST).
Setting [19] is: charge state: 2, modification: Acetyl (K).
The mark [20] stands for this setting: charge state: 2, modification: Biotin.
Where [21] appears, read: charge state: 3, modification: Biotin.
The mark [22] stands for this setting: charge state: 2, modification: Butyryl.
[23] abbreviates: charge state: 2, modification: Propionyl.
The mark [24] stands for this setting: charge state: 2, modification: Nitro (Y).
Where [25] appears, read: charge state: 2, modification: Phospho (Y).
Setting [26] is: charge state: 3, modification: HexNAc (ST).

± gives the standard deviation.

As for “DYSAPVNFISAGLKK [_DYSAPVNFISAGLK(Crotonyl)K_]”, the collision cross section reads like this: under setting [1], 438.67 ± 0.84 Å²; under setting [2], 525.96 ± 1.3 Å².

As for “DYSAPVNFISAGLKK [_DYSAPVNFISAGLK(Dimethyl (K))K_]”, the collision cross section is reported as 457.54 ± 1.7 Å² under setting [3] and 517.49 ± 1.2 Å² under setting [4].

The sequence “DYSAPVNFISAGLKK [_DYSAPVNFISAGLK(Formyl)K_]” showed a collision cross section under setting [5] of 433.25 ± 0.72 Å² and a collision cross section under setting [6] of 526.56 ± 0.68 Å².

As to “DYSAPVNFISAGLKK [_DYSAPVNFISAGLK(Gluratylation)K_]”, the collision cross section was determined as 441.44 ± 0.95 Å² under setting [7] and 535.69 ± 1.8 Å² under setting [8].

As to “DYSAPVNFISAGLKK [_DYSAPVNFISAGLK(GlyGly (K))K_]”, the collision cross section runs as follows: under setting [9], 449.5 ± 1.6 Å²; under setting [10], 532.12 ± 1.1 Å².

Regarding “DYSAPVNFISAGLKK [_DYSAPVNFISAGLK(Malonyl)K_]”, the collision cross section is, setting by setting: under setting [11], 442.5 ± 1.7 Å²; (charge state: 3, modification: Malonyl) 530.16 Å².

Turning to “DYSAPVNFISAGLKK [_DYSAPVNFISAGLK(Methyl (K))K_]”, the collision cross section is, setting by setting: under setting [12], 451.15 ± 3.1 Å²; under setting [13], 513.65 ± 3.5 Å².

For “DYSAPVNFISAGLKK [_DYSAPVNFISAGLK(Succinyl)K_]”, the collision cross section under setting [14] is reported as 438.82 ± 0.97 Å² and the collision cross section (charge state: 3, modification: Succinyl) is recorded as 533.85 ± 1.6 Å².

“DYSAPVNFISAGLKK [_DYSAPVNFISAGLK(Trimethyl (K))K_]” returned a collision cross section under setting [15] of 463.71 ± 1 Å² and a collision cross section under setting [16] of 523.24 ± 1.8 Å².

For “DYSAPVNFISAGLKK [_DYSAPVNFISAGLK(hydroxyisobutyryl)K_]”, the collision cross section under setting [17] is recorded as 443.11 ± 0.56 Å² and the collision cross section (charge state: 3, modification: hydroxyisobutyryl) was found to be 536.52 ± 2.1 Å².

“DYSQPTAAATVQDIK [_DYSQPTAAAT(HexNAc (ST))VQDIK_]”: under setting [18], the collision cross section worked out at 449.73 ± 0.61 Å².

On to “DYSSGFGGKYGVQADR [_DYSSGFGGK(Acetyl (K))YGVQADR_]”, for which the collision cross section under setting [19] is 430.77 ± 2.2 Å².

As to “DYSSGFGGKYGVQADR [_DYSSGFGGK(Biotin)YGVQADR_]”, the collision cross section came to 450.72 ± 0.16 Å² under setting [20] and 509.9 ± 0.34 Å² under setting [21].

Turning to “DYSSGFGGKYGVQADR [_DYSSGFGGK(Butyryl)YGVQADR_]”, the collision cross section under setting [22] is 438.71 ± 1.6 Å².

The sequence “DYSSGFGGKYGVQADR [_DYSSGFGGK(Crotonyl)YGVQADR_]” yielded a collision cross section under setting [1] of 437.04 ± 0.54 Å².

For “DYSSGFGGKYGVQADR [_DYSSGFGGK(Dimethyl (K))YGVQADR_]”, the collision cross section reads like this: under setting [3], 435.9 ± 1.8 Å²; under setting [4], 488.23 ± 0.74 Å².

“DYSSGFGGKYGVQADR [_DYSSGFGGK(Formyl)YGVQADR_]” registered a collision cross section under setting [5] of 429.11 ± 0.79 Å².

“DYSSGFGGKYGVQADR [_DYSSGFGGK(Gluratylation)YGVQADR_]” yielded a collision cross section under setting [7] of 441.26 ± 0.95 Å².

In turn, “DYSSGFGGKYGVQADR [_DYSSGFGGK(GlyGly (K))YGVQADR_]” returned a collision cross section under setting [9] of 440.03 ± 1.4 Å² and a collision cross section under setting [10] of 489.79 ± 1.3 Å².

Under setting [11], “DYSSGFGGKYGVQADR [_DYSSGFGGK(Malonyl)YGVQADR_]” displayed a collision cross section of 435.88 ± 0.59 Å².

Take “DYSSGFGGKYGVQADR [_DYSSGFGGK(Methyl (K))YGVQADR_]”: the collision cross section came out at 432 Å² under setting [12] and 489.11 ± 2.4 Å² under setting [13].

Under setting [23], “DYSSGFGGKYGVQADR [_DYSSGFGGK(Propionyl)YGVQADR_]” yielded a collision cross section of 432.72 Å².

Turning to “DYSSGFGGKYGVQADR [_DYSSGFGGK(Succinyl)YGVQADR_]”, the collision cross section under setting [14] was found to be 438.99 ± 0.83 Å².

Consider “DYSSGFGGKYGVQADR [_DYSSGFGGK(Trimethyl (K))YGVQADR_]”, for which the collision cross section runs as follows: under setting [15], 437.78 ± 0.016 Å²; under setting [16], 486.86 ± 1.8 Å².

“DYSSGFGGKYGVQADR [_DYSSGFGGK(hydroxyisobutyryl)YGVQADR_]” returned a collision cross section under setting [17] of 442.2 ± 0.79 Å².

Under setting [24], DYSVTANSK [_DY(Nitro (Y))SVTANSK_] showed a collision cross section of 331.98 ± 0.55 Å².

Sequence DYSVTANSK [_DY(Phospho (Y))SVTANSK_] showed a collision cross section under setting [25] of 332.04 ± 0.69 Å².

Under setting [24], “DYVSQFEGSALGK [_DY(Nitro (Y))VSQFEGSALGK_]” returned a collision cross section of 387.16 ± 0.17 Å².

Sequence “DYVSQFEGSALGK [_DY(Phospho (Y))VSQFEGSALGK_]” yielded a collision cross section under setting [25] of 391.59 ± 0.64 Å².

“EEKPAVTAAPK [_EEKPAVT(HexNAc (ST))AAPK_]” had a collision cross section under setting [18] of 383.27 ± 0.13 Å² and a collision cross section under setting [26] of 484.12 ± 0.17 Å².

Regarding “EGFSIPVSADGFK [_EGFSIPVS(HexNAc (ST))ADGFK_]”, the collision cross section under setting [18] is 412.81 ± 0.62 Å².

For “ELANFDPSRPGPPSGR [_ELANFDPS(HexNAc (ST))RPGPPSGR_]”, under setting [26], the collision cross section stood at 503.12 ± 0.18 Å².

Regarding “EPFSGDHSADGFEVTSR [_EPFS(HexNAc (ST))GDHSADGFEVTSR_]”, under setting [26], the collision cross section is reported as 513.98 ± 1.8 Å².

Under setting [18], “ESISVSSEQLAQFR [_ES(HexNAc (ST))ISVSSEQLAQFR_]” showed a collision cross section of 438.25 Å².

For the sequence “ETTPSSLAVTQTMATK [_ETTPSSLAVTQT(HexNAc (ST))MATK_]”, the collision cross section under setting [18] is recorded as 451.07 Å².

Take “EVVKPVPITSPAVSK [_EVVKPVPIT(HexNAc (ST))SPAVSK_]”: the collision cross section amounted to 445.83 ± 0.56 Å² under setting [18] and 512.07 ± 2.8 Å² under setting [26].

“FDDTNPEKEEAK [_FDDTNPEK(Acetyl (K))EEAK_]”: the collision cross section under setting [19] was found to be 394.25 ± 1.3 Å² and the collision cross section (charge state: 3, modification: Acetyl (K)) was 440.01 ± 0.78 Å².

Consider FDDTNPEKEEAK [_FDDTNPEK(Biotin)EEAK_], for which the collision cross section is 416.55 ± 1.6 Å² under setting [20] and 504.96 ± 0.34 Å² under setting [21].

Turning to FDDTNPEKEEAK [_FDDTNPEK(Butyryl)EEAK_], the collision cross section came to 399.47 ± 0.85 Å² under setting [22] and 440.77 ± 2 Å² (charge state: 3, modification: Butyryl).

For the sequence FDDTNPEKEEAK [_FDDTNPEK(Crotonyl)EEAK_], the collision cross section runs as follows: under setting [1], 399.58 ± 0.79 Å²; under setting [2], 439.29 Å².

With “FDDTNPEKEEAK [_FDDTNPEK(Dimethyl (K))EEAK_]”, the collision cross section by setting is: under setting [3], 399.09 ± 0.55 Å²; under setting [4], 487.33 ± 2.2 Å².

With FDDTNPEKEEAK [_FDDTNPEK(Formyl)EEAK_], the collision cross section is 390.88 ± 0.55 Å² under setting [5] and 435.1 Å² under setting [6].

Take “FDDTNPEKEEAK [_FDDTNPEK(Gluratylation)EEAK_]”: the collision cross section is recorded as 403.46 ± 1.1 Å² under setting [7] and 440.63 Å² under setting [8].

“FDDTNPEKEEAK [_FDDTNPEK(GlyGly (K))EEAK_]” returned a collision cross section under setting [9] of 402.92 ± 5.6 Å² and a collision cross section under setting [10] of 486.07 ± 0.34 Å².

Take FDDTNPEKEEAK [_FDDTNPEK(Malonyl)EEAK_]: the collision cross section under setting [11] was 398.04 ± 0.6 Å².

As for “FDDTNPEKEEAK [_FDDTNPEK(Methyl (K))EEAK_]”, the collision cross section is, setting by setting: under setting [12], 400.43 ± 1.8 Å²; under setting [13], 498.56 ± 1.5 Å².

On to “FDDTNPEKEEAK [_FDDTNPEK(Propionyl)EEAK_]”, for which the collision cross section under setting [23] came to 396.96 ± 0.65 Å².

The values are drawn from the supplement of paper PMC10598134.
